In patent publication US9745384B2, “Peptides useful for modulating histone demethylase function” (The Brigham and Women's Hospital, Inc., priority 2012, dated 2017):
Ends that are not written are not given here.

Columns and labels:
[1] = system: CCND1 and CCNE1 expression; experiment: CCND1 and CCNE1 expression in breast cancer cells; assay type: cell-based; settings: overexpression in cells (FIG. 25C)
From the text: We first established stable MDA-MB-231 cell lines that express similar levels of the mutant or the wild-type full-length NPAC from cDNAs introduced with silent mutations and resistant to NPAC shRNA (data not shown). […] Thus, mutation of the LSD2-interacting residues F218, L219 and L291 of NPAC can disrupt LSD2 and NPAC functions in vivo.
We next examined if it is possible to use a small molecule to manipulate the interaction between NPAC and LSD2, thus affecting target gene expression. We have shown that a short mutant NPAC peptide (residues 214-225) can interact with LSD2 with high affinity, however, lost its cofactor activity. NPAC214-225.F217A is expected to be able to competitive inhibit the interaction between endogenous NPAC and LSD2, without stimulating LSD2 demethylase activity (FIG. 25A, right). […] Thus, unable to stimulate the histone demethylase activity of endogenous LSD2, this mutant peptide is a potent inhibitor of LSD2 function by competitively inhibiting LSD2 binding by endogenous NPAC.

[2] = target: T1, His-LSD2 (Homo sapiens, UniProt Q8NB78); experiment: Nucleosome demethylation assay (NPAC cofactor activity for LSD2, immunoblot); assay type: biochemical; settings: threshold dosage of His-LSD2; nucleosomes purified from HeLa
T1 construct: typically 0.5 μg full-length His-LSD2; made in house; host or cells: Sf9 insect cells
T1 sequence (Q8NB78 1-822): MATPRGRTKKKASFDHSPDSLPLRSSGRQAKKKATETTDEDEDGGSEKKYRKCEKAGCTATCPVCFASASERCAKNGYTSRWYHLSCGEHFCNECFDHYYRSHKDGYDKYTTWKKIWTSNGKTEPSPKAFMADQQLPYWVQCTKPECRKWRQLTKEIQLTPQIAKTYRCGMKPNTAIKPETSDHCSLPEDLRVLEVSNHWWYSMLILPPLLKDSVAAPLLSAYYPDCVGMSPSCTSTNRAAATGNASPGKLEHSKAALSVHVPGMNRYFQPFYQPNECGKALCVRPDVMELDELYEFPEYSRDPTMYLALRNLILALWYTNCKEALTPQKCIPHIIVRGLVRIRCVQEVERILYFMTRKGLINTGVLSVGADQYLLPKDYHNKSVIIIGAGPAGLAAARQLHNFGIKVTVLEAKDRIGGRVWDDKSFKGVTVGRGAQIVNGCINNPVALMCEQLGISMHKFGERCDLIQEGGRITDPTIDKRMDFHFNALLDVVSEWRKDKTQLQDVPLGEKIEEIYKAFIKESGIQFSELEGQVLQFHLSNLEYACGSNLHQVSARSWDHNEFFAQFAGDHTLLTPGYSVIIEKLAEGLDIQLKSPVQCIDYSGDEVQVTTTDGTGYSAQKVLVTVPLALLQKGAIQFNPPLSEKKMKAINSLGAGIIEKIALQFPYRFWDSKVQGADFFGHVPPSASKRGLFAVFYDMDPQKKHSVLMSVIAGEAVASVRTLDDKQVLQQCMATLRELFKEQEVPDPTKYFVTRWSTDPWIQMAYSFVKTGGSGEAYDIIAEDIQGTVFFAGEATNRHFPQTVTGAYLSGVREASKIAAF
Procedure: For nucleosome demethylation assays, typically 0.5 μg full-length His-LSD2, 1 μg NPAC protein or peptides, and 2 μg nucleosomes purified from HeLa were used, and demethylation efficiency was analyzed by SDS-PAGE electrophoresis and immunoblot using methylation specific anti-histone H3 antibodies as previously described (Shi et al. 2004).

[3] = target: T1, His-LSD2; experiment: GST-pulldown of His-LSD2 by GST-NPAC proteins; assay type: binding; settings: coomassie blue staining
Procedure: […] GST or GST-NPAC fusion proteins were bound to glutathione agarose, and were incubated with 2 μg full-length His-LSD2 overnight in 50 mM NaPO4 pH 7.4, 150 mM NaCl, 0.5% NP-40, 5% glycerol, 10 μM ZnSO4, 1 mM MgCl2, 1 mM DTT, 0.1 mM PMSF at 4° C. After washed 4 times with same buffer at 4° C., glutathione agarose beads were boiled in 1×SDS sample loading buffer. Elute was resolved on a 15% SDS-PAGE gel and stained by coomassie blue.

[4] = system: nucleosomes purified from HeLa; experiment: Nucleosome pulldown by GST-NPAC proteins; assay type: binding
Procedure: Nucleosomes were purified from HeLa as previously described (Umlauf et al., 2004). To examine nucleosome binding selectivity of NPAC, 5 μg GST fusion protein bound to glutathione agarose were incubated with 20 μg nucleosomes overnight at 4° C. in nucleosome binding buffer (50 mM NaPO4 pH 7.4, 200 mM NaCl, 0.5% NP-40, 5% glycerol, 10 μM ZnSO4, 1 mM MgCl2, 1 mM DTT, 0.1 mM PMSF). After washing 4 times with the same buffer at 4° C., the beads were boiled in 1×SDS sample loading buffer and elute was resolved by 15% SDS-PAGE for immunoblot analysis or coomassie staining.
For free-DNA competition assays, human genomic DNA was purified from HeLa cells and fragmented to an average size around 300 bp by sonication. Equal amounts of GST-NPAC.d5 bound to glutathione beads were pre-incubated with 0, 5, 10, 25 μg genomic DNA fragments in nucleosome binding buffer for 30 minutes at room temperature, and equal amounts of nucleosomes were added and incubated overnight at 4° C. After extensive washing, GST-NPAC.d5 and bound nucleosomes were eluted by boiling in 1×SDS sample loading buffer, resolved by SDS-PAGE and stained with coomassie blue.

[5] = system: double strand DNA; experiment: DNA binding assay (GST-pulldown)
Procedure: 5-10 μg GST and GST-tagged NPAC truncation proteins were incubated with 1 μg linearized plasmid DNA overnight at 4° C. in 50 mM Tris pH 7.4, 200 mM NaCl, 0.2% NP-40, 1 mM MgCl2, 1 mM EDTA, 1 mM DTT, 0.02 mM ZnSO4. After extensive washing with the same buffer, bound DNA was eluted by incubating with 100 μl 10 mM Tris pH 8.0, 1% SDS for 15 minutes at 65° C. Pulldown DNA was purified using Qiagen PCR purification kit, resolved by agarose gel electrophoresis and stained with Ethidium Bromide.

GFP-NPAC214-225.F217A: GFP fusion of mutant NPAC peptide (residues 214-225) F217A, overexpressed in cells ({GFP}-DPHAHHFLLSQT; UniProt Q49A26 214-225, looked up, variant F217A)
CCND1 and CCNE1 expression on ectopic expression of the peptide [1]: consistently down regulates CCND1 and CCNE1 expression
CCND1 and CCNE1 expression on ectopic expression of the peptide ([1]; listed as NPAC.214-215.F217A peptide): down regulates CCND1 and CCNE1 expression

B1: NP.d8: NPAC residues 188-252 (protein)
chain: TVKGMMAGPMAAFKWQPTASEPVKDADPHFHHFLLSQTEKPAVCYQAITKKLKICEEETGSTSIQ
modifications: also: fused to dimerising Fc or GST
Cofactor activity: stimulation of LSD2 demethylation of nucleosomal H3K4me2 [2]: significantly enhances LSD2 histone demethylase activity on nucleosomal substrates
LSD2 binding (GST-pulldown) [3]: sufficient for LSD2 interaction

B2: NPAC.d2: Example 2 GST-NPAC truncation, residues 1-250 (protein, UniProt Q49A26 1-250, looked up, fragment)
chain: MAAVSLRLGDLVWGKLGRYPPWPGKIVNPPKDLKKPRGKKCFFVKFFGTEDHAWIKVEQLKPYHAHKEEMIKINKGKRFQQAVDAVEEFLRRAKGKDQTSSHNSSDDKNRRNSSEERSRPNSGDEKRKLSLSEGKVKKNMGEGKKRVSSGSSERGSKSPLKRAQEQSPRKRGRPPKDEKDLTIPESSTVKGMMAGPMAAFKWQPTASEPVKDADPHFHHFLLSQTEKPAVCYQAITKKLKICEEETGSTS
modifications: GST tag
Nucleosome binding (GST-pulldown) [4]: strong binding to nucleosomes

B3: NPAC.d3: Example 2 GST-NPAC truncation, residue 81-553 (protein, UniProt Q49A26 81-553, looked up, fragment)
chain: QAVDAVEEFLRRAKGKDQTSSHNSSDDKNRRNSSEERSRPNSGDEKRKLSLSEGKVKKNMGEGKKRVSSGSSERGSKSPLKRAQEQSPRKRGRPPKDEKDLTIPESSTVKGMMAGPMAAFKWQPTASEPVKDADPHFHHFLLSQTEKPAVCYQAITKKLKICEEETGSTSIQAADSTAVNGSITPTDKKIGFLGLGLMGSGIVSNLLKMGHTVTVWNRTAEKCDLFIQEGARLGRTPAEVVSTCDITFACVSDPKAAKDLVLGPSGVLQGIRPGKCYVDMSTVDADTVTELAQVIVSRGGRFLEAPVSGNQQLSNDGMLVILAAGDRGLYEDCSSCFQAMGKTSFFLGEVGNAAKMMLIVNMVQGSFMATIAEGLTLAQVTGQSQQTLLDILNQGQLASIFLDQKCQNILQGNFKPDFYLKYIQKDLRLAIALGDAVNHPTPMAAAANEVYKRAKALDQSDNDMSAVYRAYIH
modifications: GST tag
Nucleosome binding (GST-pulldown) [4]: abolish the ability to interact with nucleosomes

B4: NPAC.d4: Example 2 GST-NPAC truncation, residue 181-553 (protein, UniProt Q49A26 181-553, looked up, fragment)
chain: LTIPESSTVKGMMAGPMAAFKWQPTASEPVKDADPHFHHFLLSQTEKPAVCYQAITKKLKICEEETGSTSIQAADSTAVNGSITPTDKKIGFLGLGLMGSGIVSNLLKMGHTVTVWNRTAEKCDLFIQEGARLGRTPAEVVSTCDITFACVSDPKAAKDLVLGPSGVLQGIRPGKCYVDMSTVDADTVTELAQVIVSRGGRFLEAPVSGNQQLSNDGMLVILAAGDRGLYEDCSSCFQAMGKTSFFLGEVGNAAKMMLIVNMVQGSFMATIAEGLTLAQVTGQSQQTLLDILNQGQLASIFLDQKCQNILQGNFKPDFYLKYIQKDLRLAIALGDAVNHPTPMAAAANEVYKRAKALDQSDNDMSAVYRAYIH
modifications: GST tag
Nucleosome binding (GST-pulldown) [4]: abolish the ability to interact with nucleosomes

B5: NPAC.d5: Example 2 GST-NPAC truncation, residues 1-120 (protein, UniProt Q49A26 1-120, looked up, fragment)
chain: MAAVSLRLGDLVWGKLGRYPPWPGKIVNPPKDLKKPRGKKCFFVKFFGTEDHAWIKVEQLKPYHAHKEEMIKINKGKRFQQAVDAVEEFLRRAKGKDQTSSHNSSDDKNRRNSSEERSRP
modifications: GST tag
Nucleosome binding (GST-pulldown) [4]: can readily do so
Nucleosome binding in the presence of increasing free double strand DNA ([4]; 0, 5, 10, 25 μg genomic DNA fragments): compromised the nucleosome binding ability of NPAC.d5 in a dose dependent manner
DNA binding (GST-pulldown) [5]: pulls down DNA nearly as efficiently as NPAC.d1

B6: NPAC.d6: Example 2 GST-NPAC truncation, residues 1-81 (protein, UniProt Q49A26 1-81, looked up, fragment)
chain: MAAVSLRLGDLVWGKLGRYPPWPGKIVNPPKDLKKPRGKKCFFVKFFGTEDHAWIKVEQLKPYHAHKEEMIKINKGKRFQQ
modifications: GST tag
Nucleosome binding (GST-pulldown) [4]: failed to interact with nucleosomes
DNA binding (GST-pulldown) [5]: unable to interact with DNA
